Experimental data: US20160159862A1 (PROTAGONIST THERAPEUTICS, published 2016)
Bridge positions count the residues as written; N and C are the ends. Square brackets hold non-standard residues; d marks the D form. Ends that are not written are not given here. * marks the point of attachment. Phe(4-CF3) = N[C@@H](Cc1ccc(C(F)(F)F)cc1)C(=O)O; Phe(4-tBu) = CC(C)(C)c1ccc(C[C@H](N)C(=O)O)cc1; 2Nal = N[C@@H](Cc1ccc2ccccc2c1)C(=O)O; d1Nal = N[C@H](Cc1cccc2ccccc12)C(=O)O; d2Nal = N[C@H](Cc1ccc2ccccc2c1)C(=O)O; Oleoyl = CCCCCCCC/C=C\CCCCCCCC(=O)*; NMeR = CN[C@@H](CCCNC(=N)N)C(=O)O; Palmitoyl = CCCCCCCCCCCCCCCC(=O)*; hPhe = N[C@@H](CCc1ccccc1)C(=O)O; Myristoyl = CCCCCCCCCCCCCC(=O)*; NMeE = CN[C@@H](CCC(=O)O)C(=O)O; β3hE = N[C@@H](CCC(=O)O)CC(=O)O; Pen = CC(C)(S)[C@H](N)C(=O)O; dNMeK = CN[C@H](CCCCN)C(=O)O; Lauroyl = CCCCCCCCCCCC(=O)*; Isovaleryl = CC(C)CC(=O)*; Hexanoyl = CCCCCC(=O)*

B1: SEQ ID NO 169 (peptide)
peptide: Ac-[Pen][NMeR]SDTL[Pen][Phe(4-tBu)][b‑H‑E][dK]
modifications: disulfide 1-7 (inferred); not fully specified (residue 10); also: 4,4,4-trifluorobutyric acid attached after k
B2: SEQ ID NO 171 (peptide)
peptide: Ac-[Pen][NMeR]SDTL[Pen][Phe(4-tBu)][b‑H‑E][dK]
modifications: disulfide 1-7 (inferred); not fully specified (residue 10); also: isovaleric acid attached after k
B3: SEQ ID NO 172 (peptide)
peptide: Ac-[Pen][NMeR]SDTL[Pen][Phe(4-tBu)][b‑H‑E][dK]
modifications: disulfide 1-7 (inferred); not fully specified (residue 10); also: palmitoyl (palmitoyl chloride) attached after k
B4: SEQ ID NO 173 (peptide)
peptide: Ac-[Pen][NMeR]SDTL[Pen][Phe(4-tBu)][b‑H‑E][dK]
modifications: disulfide 1-7 (inferred); not fully specified (residue 10); also: lauroyl (lauroyl chloride) attached after k
B5: SEQ ID NO 170 (peptide)
peptide: Ac-[Pen][NMeR]SDTL[Pen][Phe(4-tBu)][b‑H‑E][dK]
modifications: disulfide 1-7 (inferred); not fully specified (residue 10); also: hexanoic acid attached after k
B6: SEQ ID NO 174 (peptide)
peptide: Ac-[Pen][NMeR]SDTL[Pen][Phe(4-tBu)][b‑H‑E][dK]
modifications: disulfide 1-7 (inferred); not fully specified (residue 10); also: oleoyl (oleoyl chloride) attached after k
B7: SEQ ID NO 175 (peptide)
peptide: Ac-[Pen][NMeR]SDTL[Pen][Phe(4-tBu)][b‑H‑E][dK]
modifications: disulfide 1-7 (inferred); not fully specified (residue 10); also: myristoyl (myristoyl chloride) attached after k

These binders were tested against α4β7 integrin on human cells (human, UniProt P13612 34-1032; P26010 20-798) (assay: cell-based or functional assay).

Binder	α4β7 cell (Hu) IC50	PBMC IC50
B1	> 10 nM	
Oleoyl-[Pen][NMeR]SDTL[Pen][Phe(4-tBu)][β3hE][dK]-NH2 (disulfide 1-7 (inferred)) [SEQ ID NO 180]	> 1000 nM	
Myristoyl-[Pen][NMeR]SDTL[Pen][Phe(4-tBu)][β3hE][dK]-NH2 (disulfide 1-7 (inferred)) [SEQ ID NO 181]	> 1000 nM	
Ac-[Pen][NMeR]SDTL[Pen][2Nal][dE][dNMeK]-NH2 (disulfide 1-7 (inferred); also: homodimer via DIG linker) [SEQ ID NO 39]	> 10 nM	
Palmitoyl-[Pen][NMeR]SDTL[Pen][Phe(4-tBu)][β3hE][dK]-NH2 (disulfide 1-7 (inferred)) [SEQ ID NO 178]	> 1000 nM	
Ac-[Pen][NMeR]SDTL[Pen][dF][dE][dK]-NH2 (disulfide 1-7 (inferred); also: homodimer via DIG) [SEQ ID NO 2]	> 100 nM	
Ac-[Pen][NMeR]SDTL[Pen][hPhe]E[dK]-NH2 (disulfide 1-7 (inferred); also: homodimer via DIG linker) [SEQ ID NO 45]	> 25 nM	
B2	> 10 nM	
Ac-[Pen][NMeR]SQIQ[Pen][Phe(4-tBu)][β3hE][dK]-NH2 (disulfide 1-7 (inferred); also: homodimer via DIG) [SEQ ID NO 189]	> 10000 nM	
Ac-[Pen][NMeR]SDTL[Pen][Phe(4-tBu)][b‑H‑E][dK]-OH (disulfide 1-7 (inferred); also: homodimer via DIG) [SEQ ID NO 168]	≤ 10 nM	≤ 10 nM
Ac-[Pen][NMeR]SDTL[Pen][Phe(4-tBu)][b‑H‑E][dK]-NH2 (disulfide 1-7 (inferred); also: homodimer via IDA) [SEQ ID NO 166]	≤ 10 nM	≤ 10 nM
Ac-[Pen][NMeR]SDIL[Pen][Phe(4-tBu)][β3hE][dK]-NH2 (disulfide 1-7 (inferred); also: homodimer via IDA, Alexa-647 label on IDA) [SEQ ID NO 188]	≤ 10 nM	
Ac-[Pen][NMeR]SDTL[Pen][dW]E[dK]-NH2 (disulfide 1-7 (inferred); also: homodimer via DIG) [SEQ ID NO 28]	> 50 nM	
Ac-[Pen][NMeR]SDTL[Pen][Phe(4-tBu)][b‑H‑E][dK]-NH2 (disulfide 1-7 (inferred); also: homodimer via IDA-PEG4-Biotin) [SEQ ID NO 167]	≤ 10 nM	≤ 10 nM
Ac-[Pen][NMeR]SDDL[Pen][Phe(4-tBu)][β3hE][dK]-NH2 (disulfide 1-7 (inferred); also: homodimer via IDA, Alexa-647 label on IDA) [SEQ ID NO 193]	> 100000 nM	
B3	965 nM	
B4	> 100 nM	
Ac-C[NMeR]SDTL[Pen]W[dK]-NH2 (disulfide 1-7 (inferred); also: homodimer via PEG25 linker) [SEQ ID NO 37]	> 100 nM	

Binder	α4β7 cell (Hu) IC50	PBMC IC50
Ac-[Pen][NMeR]SDTL[Pen][d2Nal]E[dK]-NH2 (disulfide 1-7 (inferred); also: homodimer via DIG linker) [SEQ ID NO 35]	> 100 nM	
Ac-[Pen][NMeR]SDDL[Pen][Phe(4-tBu)][β3hE][dK]-NH2 (disulfide 1-7 (inferred); also: homodimer via IDA) [SEQ ID NO 191]	> 10000 nM	
B5	> 10 nM	
Ac-[Pen][NMeR]SDTL[Pen][dF]E[dK]-NH2 (disulfide 1-7 (inferred); also: homodimer via DIG linker) [SEQ ID NO 30]	> 100 nM	
Ac-[Pen][NMeR]SDTQ[Pen][Phe(4-tBu)][β3hE][dK]-NH2 (disulfide 1-7 (inferred); also: homodimer via IDA) [SEQ ID NO 187]	> 100 nM	
B6	> 1000 nM	
B7	> 500 nM	
Ac-[Pen][NMeR]SDIL[Pen][Phe(4-tBu)][β3hE][dK]-NH2 (disulfide 1-7 (inferred); also: homodimer via IDA) [SEQ ID NO 186]	> 100 nM	
Ac-[Pen][NMeR]SQIQ[Pen][Phe(4-tBu)][β3hE][dK]-NH2 (disulfide 1-7 (inferred); also: homodimer via IDA, Alexa-647 label on IDA) [SEQ ID NO 192]	> 10000 nM	
Ac-[Pen][NMeR]SDTL[Pen][Phe(4-CF3)][dE][dK]-NH2 (disulfide 1-7 (inferred); also: homodimer via DIG linker) [SEQ ID NO 3]	> 25 nM	
Hexanoyl-[Pen][NMeR]SDTL[Pen][Phe(4-tBu)][b‑H‑E][dK]-NH2 (disulfide 1-7 (inferred)) [SEQ ID NO 176]	> 50 nM	
Ac-[Pen][NMeR]SDTL[Pen][d1Nal]E[dK]-NH2 (disulfide 1-7 (inferred); also: homodimer via DIG linker) [SEQ ID NO 34]	> 25 nM	
Ac-[Pen][NMeR]SQIQ[Pen][Phe(4-tBu)][β3hE][dK]-NH2 (disulfide 1-7 (inferred); also: homodimer via IDA) [SEQ ID NO 190]	> 100000 nM	
Ac-[Pen][NMeR]SDTL[Pen][Phe(4-tBu)][b‑H‑E]-NH2 (disulfide 1-7 (inferred)) [SEQ ID NO 165]	> 10 nM	> 100 nM
Lauroyl-[Pen][NMeR]SDTL[Pen][Phe(4-tBu)][β3hE][dK]-NH2 (disulfide 1-7 (inferred)) [SEQ ID NO 179]	> 100 nM	
Isovaleryl-[Pen][NMeR]SDTL[Pen][Phe(4-tBu)][b‑H‑E][dK]-NH2 (disulfide 1-7 (inferred)) [SEQ ID NO 177]	> 50 nM	
Ac-C[NMeR]SDTL[Pen]W[dK]-NH2 (disulfide 1-7 (inferred); also: homodimer via PEG13 linker) [SEQ ID NO 36]	> 50 nM	
Ac-[Pen][NMeR]SDTL[Pen]W[NMeE][dK]-NH2 (disulfide 1-7 (inferred); also: homodimer via DIG linker) [SEQ ID NO 31]	> 50 nM	
